The source of these data is patent US20250085286A1.

The target of this experiment is HRP-labelled monoclonal antibody targeting PRO-C22. Briefly: competitive ELISA, standard peptide against coated Biotin-… for the HRP-mAb. A general note: ELISA stands for enzyme-linked immunosorbent assay.
HRP-labelled monoclonal antibody targeting PRO-C22, sequence (VH, as listed by the source limits assumed, chain 1 of 2): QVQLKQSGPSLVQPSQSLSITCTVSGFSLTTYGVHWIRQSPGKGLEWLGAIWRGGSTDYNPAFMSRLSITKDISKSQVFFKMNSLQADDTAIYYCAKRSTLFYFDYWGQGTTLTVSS
HRP-labelled monoclonal antibody targeting PRO-C22, sequence (VL, as listed by the source limits assumed, chain 2 of 2): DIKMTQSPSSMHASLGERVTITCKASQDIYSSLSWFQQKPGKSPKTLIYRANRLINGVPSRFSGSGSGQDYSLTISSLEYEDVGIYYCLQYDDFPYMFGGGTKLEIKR

Turning to GPPGPPGQCDPSQCAYFASLAARPGNVKGP [30 AA standard peptide …], the IC50 came out at 8.15 ng/mL.

As usually defined, the IC50 is the concentration needed to halve the response being measured. Read a high IC50 as weaker potency in that assay.
